In IntAct's records for PubMed 26455799:

B1: Cilia- and flagella-associated protein 36 (Mus musculus), Q8C6E0 (parent)
chain: MAAEEEDEVEWVVESIAGFLRGPDWSIPILDFVEQKCEVFDDEEESKLTYTEIHQEYKELVEKLLESYLKEIGINEDQFQEACTSPLAKTRTSQAILQPVLAAEDFTIFKAMMVQKNIEMQLQAIRIIQERNGVLPDCLTDGADVVSDLEQEEMKILREVLRKSKEEYDQEEERKRKKQSSEAKMEELPVYTSEAEKMSNSQGDGEHFVQPPSEVKVHFANQSVQPLARKMELLPETSSLTQKGLKIPGLEHASMEGPIANLSALGTEELRQREHYLKQKRDKLLSMRKDTRTKQIQNTEQKGKPTREAEEMTEKPEMTAEEKQTLLKRRLLAEKLKEEVINK
B2: ADP-ribosylation factor-like protein 2 (Mus musculus), Q9D0J4 (parent)
chain: MGLLTILKKMKQKERELRLLMLGLDNAGKTTILKKFNGEDVDTISPTLGFNIKTLEHRGFKLNIWDVGGQKSLRSYWRNYFESTDGLIWVVDSADRQRMQDCQRELQSLLVEERLAGATLLIFANKQDLPGALSCNAIQEALELDSIRSHHWRIQGCSAVTGEDLLPGIDWLLDDISSRVFTAD

Variants of: B1
Details: with arl3_mouse Arl3, Q9WUL7
Chain of arl3_mouse Arl3, Q9WUL7 (Q9WUL7 whole entry): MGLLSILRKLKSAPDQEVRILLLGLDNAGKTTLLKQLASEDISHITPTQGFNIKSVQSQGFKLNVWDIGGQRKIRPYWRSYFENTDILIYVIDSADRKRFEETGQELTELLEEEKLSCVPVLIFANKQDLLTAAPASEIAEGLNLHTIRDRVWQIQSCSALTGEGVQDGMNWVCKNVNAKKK

Variant | effect of a mutation on the interaction
E44R;E45R | decreasing interaction strength
E44R;L48R | decreasing interaction strength
L65D;C83R | decreasing interaction strength
L65D;C83R;V100H | decreasing interaction strength

Variants of: B2
Details: with cfa36_mouse Cfap36, Q8C6E0

Variant | effect of a mutation on the interaction
MGLDTILKKMKQKERELRLLMLGLDNAGKTTILKKFNGEDVDTISPTLGFNIKTLEHRGFKLNIWDVGGQKSLRSYWRNYFESTDGLIWVVDSADRQRMQDCQRELQSLLVEERLAGATLLIFANKQDLPGALSCNAIQEALELDSIRSHHWRIQGCSAVTGEDLLPGIDWLLDDISSRVFTAD [L4D] | decreasing interaction strength
MGLLTILKKMKQKERELRLLMLGLDNAGKTTILKKFNGEDVDTISPTLGANIKTLEHRGFKLNIWDVGGQKSLRSYWRNYFESTDGLIWVVDSADRQRMQDCQRELQSLLVEERLAGATLLIFANKQDLPGALSCNAIQEALELDSIRSHHWRIQGCSAVTGEDLLPGIDWLLDDISSRVFTAD [F50A] | decreasing interaction strength
